Here are results for 1 molecule from patent publication US12655405B2, “Sequence specific degradation of single-stranded polynucleotides with CARD1 nuclease” (The Rockefeller University, priority 2020, dated 2026).

Data set [1] relates to M13 ssDNA. The data set is described as follows: Next-generation sequencing of ssDNA degradation products (M13). It is filed as biochemical. The procedure: To assess the ssDNA cleavage patterns of CARD1, 2 ug of ΦX174 virion DNA (New England Biolabs) or M13 ssDNA (M13mp18) (New England Biolabs) was first digested by 250 nM CARD1 with 2.5 uM of cA4 in a buffer consisting of 20 mM Tris pH 7.5, 150 mM NaCl, 1 mM DTT, and 5 mM MnCl2. At the specified time points, the reaction was quenched by adding 25 mM of EDTA. Half the reaction was visualized by agarose gel electrophoresis. The remaining digestion products from the 2 hour timepoint were purified by phenol chloroform extraction.
Without further fragmentation, the purified digested DNA was subjected to the Accel-NGS 1S Plus DNA Library Kit (Swift Biosciences), proceeding according to the manufacturer's protocol, using a 1.5× ratio of magnetic beads (AMPure XP beads by Beckman Coulter) to also include small DNA fragments. One of the library preparation steps involves the addition of on average 8 nucleotides to the 3′ end of the DNA. […] The 5′ end of each read R1 represents the start of a DNA molecule, and thus a CARD1 cut site. Using a custom python script, the location of 7,020,067 ΦX174 reads (mapping to Genbank reference NC_001422) and 7,670,616 M13 reads (mapping to Genbank reference X02513) was determined. To account for reads mapping at the circular junctions, 65 nucleotides of the first 5′ end of the maps were copied and added at the 3′ end of the maps. […]

The test system of data set [2] is recA, lexA, uvrA and umuC transcripts. The data set is described as follows: RT-qPCR of SOS-induced genes. The data set is classed as cell-based, Staphylococcus aureus RN4220. Particulars: after aTc induction; compared to d-CARD1; cells expressing Cas10HD. On the procedure:
Cells carrying pTarget and a pCRISPR containing either CARD1 or dCARD1 were grown overnight in triplicate, diluted 1/100 into fresh BHI with 10 ug/ml of chloramphenicol and outgrown for an hour. The cells were then diluted to an OD of 0.1. To induce targeting, aTc was added to a final concentration of 250 ng/ml. The cells were incubated with shaking for 20 minutes before being spun down at 6000×g for 5 minutes, and then lysed in PBS with 1 mg/ml of lysostaphin and 2 mg/ml of lysozyme for 10 minutes at 37° C. RNA was purified using Direct-zol RNA miniprep kit (Zymo Research) according to the manufacturer's protocol, followed by DNA depletion using TURBO DNA-free kit (Invitrogen) according to the manufacturer's protocol. To produce cDNA, approximately 2 ug of DNA-depleted RNA was treated using the SuperScript IV Reverse Transcriptase kit (Invitrogen) according to the manufacturer's protocol and random hexamer primers. The RT-qPCR reaction was performed using Fast SYBR Green Master Mix (Life Technologies) with an input of about 100 ng cDNA, in biological triplicate, using […] of each primer, on a QuantStudio 3 qPCR machine (Thermo Fisher). The housekeeping gene rho was used as an internal normalization control (37).
(Real-time PCR tracks product formation cycle by cycle.)

The test system of data set [3] is Staphylococcus aureus RN4220. The data set is described as follows: Growth curves, in vivo CARD1 toxicity induction. It is filed as cell-based. The note with it: pTarget + pCRISPR variant, no antibiotic selection of pTarget. The procedure:
For in vivo CARD1 toxicity induction, triplicate RN4220 overnight cultures harbouring pTarget and a pCRISPR are diluted 1:100, outgrown for about an hour, and normalized for OD. Cells are then seeded in a 96 well plate. To induce targeting, 6.25-12.5 ng/ml of anhydrotetracycline (aTc) is added to the appropriate wells. Absorbance at 600 nm is then measured every 10 minutes by a microplate reader (TECAN Infinite 200 PRO). To analyze targeting escapers, cells from the end of the experiment (either cells from wells without aTc, i.e. naïve cells, or cells from wells that recovered later in the time course due to CARD1 toxicity) are re-streaked on BHI agar plates, and individual colonies were launched in liquid culture, diluted the next day, and used for a new time course experiment. From these overnight cultures, plasmid DNA was isolated (QIAgen Spin Miniprep Kit), digested by BamHI-HF (single-cutter for both pTarget and pCRISPR) (New England Biolabs), and visualized by gel electrophoresis. The deletion of important features in pTarget (making it unable to be targeted by pCRISPR) or pCRISPR was confirmed by Sanger sequencing.

For data set [4], the system named is pTarget. The data set is described as follows: Plasmid curing assay. It is filed as cell-based, Staphylococcus aureus. Particulars: but not pCRISPR. The procedure:
To assess CARD1's ability to promote plasmid curing under low transcription conditions, a plasmid curing assay was performed, by adapting a known approach. Briefly, overnight cultures of S. aureus cells harbouring pTarget and a pCRISPR containing either Csm6, dCsm6, or CARD1 were diluted to exactly OD 0.15 in tryptic soy broth with 10 ug/ml chloramphenicol. After removing a cell aliquot for the 0 timepoint, aTc was added to a concentration of 9.3 ng/ml (FIG. 4e) or 125 ng/ml (FIG. 4f) and the cells were incubated at 37° C., with further aliquots taken at the indicated times. The cells were then lysed, and the plasmid DNA isolated using a QIAprep Miniprep kit (Qiagen) according to the manufacturer's protocol (Qiagen). 400 ng of plasmid was then linearized using BamHI-HF (New England Biolabs), which cuts both pTarget and pCRISPR once, followed by visualization by gel electrophoresis.

The subject of data set [5] is phage Φ12γ3. The data set is described as follows: In vivo anti-phage immunity growth curves (Φ12γ3). It is filed as cell-based, Staphylococcus aureus RN4220. The procedure:
For in vivo anti-phage immunity, cells harbouring various pCRISPRs were launched in triplicate overnight, diluted 1:100, outgrown for about an hour, and normalized for OD. Cells were seeded into a 96 well plate. Phage Φ12γ3 (25) […] was added at the appropriate multiplicity of infection, and OD measurements were taken every 10 minutes.

B1: CARD1: cA4-activated ssDNA and ssRNA nuclease of Treponema succinifaciens, SEQ ID NO:1; N-terminal CARF domain, C-terminal REase domain (protein, listed as Treponema succinifaciens)
chain: MKETILVNLVSEQTIPNVQFIKWYFNKKQTPMKILLVSTKEMEQKEKSLFIKNALHFSDSFVEWETIHTDGNDISKTENILTDYFRDNEYKNIIVNITGGTKIMSLAAFDFFNNKPNTEIFYQPIGKELQELYPNKQKYDMFEVLSLKEYLDAHGISYKYDNECVKDWNYNKTVYDLCVADNRELIKGMIALQNNSYFNNVYKRKDFLDFTQIEEEKFIAINHPAATKENMIKILQIFGFDVSRIEHKHIRYITGGWFEEYVYQKICNEYHNVDEKNVALNVTIQKGNDKNELDVIYLDKDNKLHVIECKSFVDGNEGNRVLNDALYKLQAIIKSKFGLYVKQHLYTKSIIEKETPLNRAKEFGIDIKDGTQL
With B1, the “cuts that occur at the 25 most frequent positions” value in data set [1] (M13, 5′ end mapping) was found to be 31.1%. Also, in data set [1] (M13, 2 hours timepoint), the “average fragment length of degradation products” value is 150.1 nucleotides. In addition, in data set [2], the “expression of recA, lexA, uvrA and umuC (SOS response), normalized against rho” value is “significant increase”. Also, the “growth of cultures (OD600) after addition of aTc” value in data set [3] is “severe growth defect”. In data set [4], the “time after addition of the inducer at which pTarget was cleared” value came out at 20 minutes. Moreover, the “immunity in cells that express Cas10^HD” value in data set [5] (ORF9 and ORF27 transcripts targeted) is given as “able to provide immunity”. In data set [5] (early ORF9 transcript of Φ12γ3 targeted), the “need of CARD1 nuclease activity for immunity, early target” value is recorded as “not required for immunity”. Further, the “survival of cultures after infection, late target” value in data set [5] (late ORF27 transcript of Φ12γ3 targeted) is reported as “able to survive infection”.
